Data from patent US7902348B2, “Janus family kinases and identification of immune modulators” (The United States of America as represented by the …, priority 1995, dated 2011).

T1: γc-JAK-3 interaction (Homo sapiens, UniProt P52333)
T1 construct: endogenous in cells; host or cells: YT cells (alternatively COS-7 cells expressing γc and JAK-3)
T1 sequence (P52333 1-1124): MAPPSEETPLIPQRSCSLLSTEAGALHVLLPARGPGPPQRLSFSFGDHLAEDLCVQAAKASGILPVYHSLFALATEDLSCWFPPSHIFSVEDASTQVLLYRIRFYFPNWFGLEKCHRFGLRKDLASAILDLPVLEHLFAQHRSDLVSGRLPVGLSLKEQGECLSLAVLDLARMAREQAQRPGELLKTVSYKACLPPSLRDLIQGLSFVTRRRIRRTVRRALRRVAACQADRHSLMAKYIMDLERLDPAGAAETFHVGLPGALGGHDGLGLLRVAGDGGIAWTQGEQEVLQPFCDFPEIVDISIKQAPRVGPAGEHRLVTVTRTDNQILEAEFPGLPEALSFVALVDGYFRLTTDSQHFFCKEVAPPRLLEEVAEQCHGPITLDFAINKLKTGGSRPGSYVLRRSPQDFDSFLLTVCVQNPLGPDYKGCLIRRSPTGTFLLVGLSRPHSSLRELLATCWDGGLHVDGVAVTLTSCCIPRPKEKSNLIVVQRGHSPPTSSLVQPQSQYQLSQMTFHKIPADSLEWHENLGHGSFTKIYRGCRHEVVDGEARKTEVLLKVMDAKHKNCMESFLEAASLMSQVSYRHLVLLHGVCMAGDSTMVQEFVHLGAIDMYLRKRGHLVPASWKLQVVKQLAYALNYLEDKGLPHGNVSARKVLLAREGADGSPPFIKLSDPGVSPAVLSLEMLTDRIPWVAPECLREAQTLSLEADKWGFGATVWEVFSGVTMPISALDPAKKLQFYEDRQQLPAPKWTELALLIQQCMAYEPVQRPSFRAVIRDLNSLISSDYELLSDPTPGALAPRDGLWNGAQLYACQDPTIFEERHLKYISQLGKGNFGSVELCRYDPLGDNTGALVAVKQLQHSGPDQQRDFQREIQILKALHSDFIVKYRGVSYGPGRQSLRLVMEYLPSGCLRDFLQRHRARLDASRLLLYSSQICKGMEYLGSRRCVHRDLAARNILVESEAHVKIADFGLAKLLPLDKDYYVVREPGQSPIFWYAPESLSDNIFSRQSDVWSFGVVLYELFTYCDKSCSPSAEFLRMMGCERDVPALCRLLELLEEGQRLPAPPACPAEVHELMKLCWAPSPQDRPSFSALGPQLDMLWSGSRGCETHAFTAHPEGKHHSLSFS


Experiments:
JAK-1 = experiment: Cytokine-induced phosphorylation and activation of JAK-1 in PHA-activated peripheral blood lymphocytes (Example 11); assay type: cell-based, human; conditions: for tyrosine phosphorylation of JAK-1: PBL, 15 minutes, Western blotting; for activation of JAK-1: in vitro kinase assays
Procedure: (§1) The PBL were activated for 72 hours with PHA, then washed twice at pH 6.5, incubated for 3 hours in medium containing 0.5% human serum and resuspended in medium containing 10% fetal calf serum for one hour. Cells were then lysed and immunoprecipitated with polyclonal antibodies to JAK-1 (UBI) or JAK-3. The anti-JAK-3 antibody used in these procedures has been described by Johnston et al., in Nature 370:151 (1994). Phosphotyrosine-containing proteins were detected by immunoblotting with 4G10 (UBI). […] In one procedure, the lysate was precleared with polyclonal antibody to JAK-3.

JAK-3 [1] = experiment: Cytokine-induced phosphorylation and activation of JAK-3 in PHA-activated peripheral blood lymphocytes (Example 11); assay type: cell-based, human; conditions: for tyrosine phosphorylation of JAK-3: PBL, 15 minutes, Western blotting; for activation of JAK-3: in vitro kinase assays
Procedure: as §1

γc-JAK-3 interaction = target: T1, γc-JAK-3 interaction; experiment: Assay for compounds that inhibit IL-2 receptor complex formation: γc-JAK-3 coprecipitation (Example 15); assay type: binding; conditions: peptide 140 μM added to cell lysates, anti-γc immunoprecipitation, JAK-3 immunoblot
Procedure: The peptide to be tested as an inhibitor corresponded to the first 19 amino acids of the γc cytoplasmic tail (sequence […]) (SEQ ID NO:7). […] The negative control peptide had the sequence […] (SEQ ID NO:10), and was synthesized so that the Tyr residue at position 5 of the peptide was phosphotyrosine. The test peptide or the negative control peptide were separately added to the cell lysates to final concentrations of 140 μM. The positive control immunoprecipitation was carried out in the absence of added peptide. Lysates were immunoprecipitated for 16 hours at 4° C. using antibodies to γc and protein A sepharose and washed six times before electrophoresis on SDS gels. The gels were immunoblotted with antisera to JAK-3 using ECL as described previously.

JAK-3 [2] = experiment: Cytokine-induced tyrosine phosphorylation of JAK-3 in YT cells (Example 10); assay type: cell-based, human; conditions: 15 minutes stimulation, anti-JAK-3 IP, antiphosphotyrosine blot
Procedure: (§2) YT cells were serum-starved for 3 hours and acid washed twice before stimulation and immunoprecipitation. NK 3.3 cells were grown for 2 days in 10% lymphocult (Biotest) and 15% fetal bovine serum before being washed and incubated in 2% serum. Commercial polyclonal anti-JAK-1 and JAK-2 antisera were obtained from UBI and Tyk2 polyclonal antiserum from Santa Cruz Biotechnology.

JAK-3 [3] = experiment: Cytokine-induced tyrosine phosphorylation of JAK-3 in NK 3.3 cells (Example 10); assay type: cell-based, human; conditions: 5 or 15 minutes stimulation
Procedure: as §2
Cellular lysates were immunoprecipitated with anti-JAK-3 and blotted with antiphosphotyrosine.

Molecule	tyrosine phosphorylation of JAK-1 (JAK-1)	activation of JAK-1 (JAK-1)	tyrosine phosphorylation of JAK-3 (JAK-3 [1])	activation of JAK-3 (JAK-3 [1])	inhibition of γc-JAK-3 coprecipitation (γc-JAK-3 interaction)	further results
IL-9: cytokine, known γc user	induced tyrosine phosphorylation	activated	induced tyrosine phosphorylation	activated		
ERTMPRIPTLKNLEDLVTE (n-terminal fragment) [competitor peptide]					partially inhibited	inhibition of γc-JAK-3 coprecipitation (γc-JAK-3 interaction; listed as 19 amino acid long peptide spanning Leu 271): only partially inhibited; inhibition of γc-JAK-3 coprecipitation (γc-JAK-3 interaction; listed as 19 amino acid polypeptide having the sequence of SEQ ID NO:6): inhibited
APPCYTLKPET (n-terminal fragment) [negative control peptide, reference compound]					failed to inhibit	
GM-CSF: granulocyte macrophage colony stimulating factor						JAK-3 tyrosine phosphorylation (JAK-3 [2]): not phosphorylated
IL-7: cytokine, known γc user (protein, UniProt P13232 26-177, looked up) Interleukin-7: DCDIEGKDGKQYESVLMVSIDQLLDSMKEIGSNCLNNEFNFFKRHICDANKEGMFLFRAARKLRQFLKMNSTGDFDLHLLKVSEGTTILLNCTGQVKGRKPAALGEAQPTKSLEENKSLKEQKKLNDLCFLKRLLQEIKTCWNKILMGTKEH	induced tyrosine phosphorylation	activated	induced tyrosine phosphorylation	activated		
IL-4: cytokine that utilizes the common γ chain of the IL-2 receptor (protein, UniProt P05112 25-153, looked up) Interleukin-4: HKCDITLQEIIKTLNSLTEQKTLCTELTVTDIFAASKNTTEKETFCRAATVLRQFYSHHEKDTRCLGATAQQFHRHKQLIRFLKRLDRNLWGLAGLNSCPVKEANQSTLENFLERLKTIMREKYSKCSS	induced tyrosine phosphorylation	activated	induced tyrosine phosphorylation	activated		JAK-3 tyrosine phosphorylation (JAK-3 [3]): tyrosine phosphorylated
